According to US20250332264A1, “GhR-BINDING PEPTIDE AND COMPOSITION COMPRISING SAME” (priority 2021, published 2025):
Starred links: 1 amine or outer side, 2 acyl side, 3 side chain; linkers in the order of their positions; H or OH if unused. Positions of bridges follow the written chain, without caps; N, C: chain ends. Non-standard residues stand in square brackets, D forms with d. A4pipaa = 4-amino-1-(carboxymethyl)piperidine-4-carboxylic acid, O=C(C1(N[*:1])CCN(CC(=O)[*:3])CC1)[*:2]; Trp(1-CH2CO) = O=C([C@H](Cc1cn(CC(=O)[*:3])c2ccccc12)N[*:1])[*:2]; Trp(5-OMe) = COc1ccc2[nH]cc(C[C@H](N)C(=O)O)c2c1; Trp(5-OH) = N[C@@H](Cc1c[nH]c2ccc(O)cc12)C(=O)O; NMeK = CN[C@@H](CCCCN)C(=O)O; Aib = CC(C)(N)C(=O)O; Sar = CNCC(=O)O

T1: Recombinant human GhR-Fc protein (R&D Systems) (human, UniProt P10912 19-264, limits assumed)
T1 construct: Bought from R&D Systems; Amine-coupled to a CM5 chip in the SPR assay; also called hGhR; recombinant human GhR protein fused to Fc portion of human IgG; not shown: Fc portion of human IgG
T1 sequence (looked up): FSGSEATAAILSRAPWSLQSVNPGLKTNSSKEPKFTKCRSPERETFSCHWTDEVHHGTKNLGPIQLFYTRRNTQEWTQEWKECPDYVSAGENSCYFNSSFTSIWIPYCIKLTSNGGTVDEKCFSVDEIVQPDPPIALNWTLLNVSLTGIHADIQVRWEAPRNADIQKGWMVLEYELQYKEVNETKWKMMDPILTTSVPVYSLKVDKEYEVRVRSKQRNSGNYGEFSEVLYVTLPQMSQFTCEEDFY


target: T1, Recombinant human GhR-Fc protein (R&D …); assay: SPR, Biacore T200, single-cycle kinetics, GhR-Fc immobilised on CM5
Description: SPR assay was performed using Biacore T200 (cytiva: Former GE Healthcare). After the equilibration of Series S Sensor Chip CM5 (produced by cytiva: Former GE Healthcare) with Running Buffer (HBS-EP with 1% (v/v) DMSO), an EDC/NHS mixture was injected at a flow rate of 10 μL/min for 7 minutes to thereby activate the functional groups on sensor chip. Recombinant human GhR-Fc protein (R&D Systems) in 10 mM Acetate (pH4.0) was injected immobilized to at a flow rate of 5 μL/min. It took 7 minutes to immobilize the GhR on the substrate surfaces of the sensor chip. Then Ethanolamine was injected at a flow rate of 10 μL/min for 7 minutes. 1M Ethanolamine (aq.) was injected at a flow rate of 10 μL/min for 420 seconds for capping. 10 mM Peptides in DMSO were diluted to obtain 10 uM with Running Buffer, and prepared 100 nM, 50 nM, 25 nM, 10 nM, 5 nM of each peptide solutions (Peptide Samples).
Using these Peptide Samples, kinetics of peptides against human GhR-Fc protein were measured. The method adopted for sample measurement was a single-cycle kinetics method. The analysis was conducted using the evaluation software provided with Biacore T200. A DMSO correction curve obtained by solvent correction measurements was applied for the analysis. Kinetics fitting was done on the difference data obtained by subtracting the baseline data from sample measurement data. KD values were calculated based on the association rate constant (ka) and dissociation rate constant (kd).

| Binder | Kd [nM] |
| --- | --- |
| {CH2CO}-YKVVSN[Trp(5-OMe)]YK[Trp(5-OH)][A4pipaa]VC-NH2 (thioether N-13; not fully specified (residue 2); also: albumin binder E-4IPhpCO, attachment site not given here, No linker; also called Compound No. 45) [GhR_PD_205] | 3.36 |
| {CH2CO}-Y[NMeK]VVSN[Trp(1-CH2CO)]YK[Trp(5-OH)][Aib]VCG-NH2 (thioether N-13; lactam 2-7 via Sar, also called Compound No. 3) [GhR_PD_141] | 1.71 |
| {CH2CO}-Y[NMeK]VVSN[Trp(1-CH2CO)]YK[Trp(5-OH)][Aib]VCG-NH2 (thioether N-13; lactam 2-7 via P, also called Compound No. 4) [GhR_PD_142] | 1.07 |
